Values quoted from earlier work in publication PMC7321218, “Synthetic (E)-3-Phenyl-5-(phenylamino)-2-styryl-1,3,4-thiadiazol-3-ium Chloride Derivatives as Promising Chemotherapy Agents on Cell Lines Infected with HTLV-1” (Molecules, 2020).

System: adult T-cell leukemia/lymphoma (ATLL)
Parameters: method as in PMID 25733162
Settings: in combination with multi-agent chemotherapy, improved from 33%; cited from earlier work

B1: Mogamulizumab: anti-CCR4 monoclonal antibody (antibody, chains of the INN, looked up, V domains shown)
VH: EVQLVESGGDLVQPGRSLRLSCAASGFIFSNYGMSWVRQAPGKGLEWVATISSASTYSYYPDSVKGRFTISRDNAKNSLYLQMNSLRVEDTALYYCGRHSDGNFAFGYWGQGTLVTVSS
VL: DVLMTQSPLSLPVTPGEPASISCRSSRNIVHINGDTYLEWYLQKPGQSPQLLIYKVSNRFSGVPDRFSGSGSGTDFTLKISRVEAEDVGVYYCFQGSLLPWTFGQGTKVEIK
therapy response: 52%
